From the Immune Epitope Database (IEDB)

Columns and labels:
Experiment in all cases: IEDB peptide-MHC binding, purified MHC/direct/fluorescence; filed as Kd, often an IC50 or EC50 that approximates it; ≥ and ≤ were set here for values at or beyond the usual limits of such assays
HLA-A*01:01 = conditions: source organism: Salmonella enterica
HLA-A*02:11 = conditions: source organism: Salmonella enterica subsp. enterica serovar Typhimurium str. LT2
HLA-A*11:01 = conditions: source organism: Salmonella enterica
HLA-A*29:02 = conditions: source organism: Salmonella enterica subsp. enterica serovar Typhimurium str. LT2
HLA-A*69:01 = conditions: source organism: Salmonella enterica
HLA-B*08:02 = conditions: source organism: Salmonella enterica subsp. enterica serovar Typhimurium str. LT2
HLA-B*38:01 = conditions: source organism: Salmonella enterica subsp. enterica serovar Typhimurium str. LT2
HLA-B*40:01 = conditions: source organism: Salmonella enterica
HLA-B*51:01 = conditions: source organism: Salmonella enterica subsp. enterica serovar Typhimurium str. LT2
HLA-B*58:01 = conditions: source organism: Salmonella enterica

FPASHMATY
Kd (HLA-A*01:01): ≥ 20 µM | Kd (HLA-A*02:11): ≥ 20 µM | Kd (HLA-A*11:01): ≥ 20 µM | Kd (HLA-A*29:02): 114 nM | Kd (HLA-A*69:01): ≥ 20 µM | Kd (HLA-B*08:02): ≥ 20 µM | Kd (HLA-B*38:01): ≥ 20 µM | Kd (HLA-B*40:01): ≥ 20 µM | Kd (HLA-B*51:01): ≥ 20 µM | Kd (HLA-B*58:01): ≥ 20 µM
